Experimental findings from the supplement of paper PMC7877785 are described below.

The series can be described thus: self-splicing fitness, log relative to wild type (ln ratio); higher = more splicing; Tetrahymena group I intron in knt gene, E. coli kanamycin selection, DiMSum; sequences stand for … in CUCUCU…GGAGGGAAAAGUUAUCAGGCAUGCACCUGGUAGCUAGUCUUUAAACCAAUAGAUUGCAUCGGUUUAAAAGGCAAGACCGUCAAAUUGCGGGAAAGGGGUCAACAGCCGUUCAGUACCAAGUCUCAGGGGAAACUUUGAGAUGGCCUUGCAAAGGGUAUGGUAAUAAGCUGACGGACAUGGUCCUAACCACGCAGCCAAGUCCUAAGUCAACAGAUCUUCUGUUGAUAUGGAUGCAGUUCACAGACUAAAUGUCGGUCGGGGAAGAUGUAUUCUUCUCAUAAGAUAUAGUCGGACCUCUCCUUAAUGGGAGCUAGCGGAUGAAGUGAUGCAACACUGGAGCCGCUGGGAACUAAUUUGUAUGCGAAAGUAUAUUGAUUAGUUUUGGAGUACUCGUGGUCG
An outline of the steps: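 A randomised library covering all eight P1ex-region intron nucleotides was built with the intron in the knt kanamycin-resistance gene on pET-22b(+) and held in E. coli BL21(DE3). Cells were grown overnight at 37°C or 30°C on LB agar, with or without 25 μg/mL kanamycin, plus 100 μg/mL carbenicillin, 50 μM IPTG and 0.2% rhamnose, and pooled colonies were amplicon-sequenced on an Illumina HiSeq 2500. DiMSum fitness is the error-weighted combination of wild-type-normalised replicate fold changes, kanamycin versus none.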

± gives the uncertainty stated by the source.

As for GAGUAGCAAUAUUACGCCAC, the “self-splicing fitness (ln)” value is -3.64 ± 0.28 (30 °C) and -0.452 ± 0.21 (37 °C).

As to CGAAAGCAAUAUUACGAAGU, the “self-splicing fitness (ln)” value (30 °C) was -3.07 ± 0.15 and the “self-splicing fitness (ln)” value (37 °C) was -1.84 ± 0.19.

Turning to UUCAAGCAAUAUUACGUGCU, the “self-splicing fitness (ln)” value is, setting by setting: (30 °C) -4.47 ± 0.42; (37 °C) -2.86 ± 0.35.

For ACGUAGCAAUAUUACGGAAC, the “self-splicing fitness (ln)” value reads like this: (30 °C) -2.09 ± 0.24; (37 °C) -2.14 ± 0.26.

Take CGGGAGCAAUAUUACGGAUG: the “self-splicing fitness (ln)” value is -3.1 ± 0.23 (30 °C) and -2.75 ± 0.26 (37 °C).

As for UUGUAGCAAUAUUACGCGAA, the “self-splicing fitness (ln)” value was -1.02 ± 0.21 (30 °C) and -1.73 ± 0.28 (37 °C).

For UGAAAGCAAUAUUACGGGUA, the “self-splicing fitness (ln)” value is, setting by setting: (30 °C) -1.01 ± 0.1; (37 °C) -0.387 ± 0.097.

Regarding UUGCAGCAAUAUUACGAUCU, the “self-splicing fitness (ln)” value is, setting by setting: (30 °C) -2.34 ± 0.22; (37 °C) -1.78 ± 0.21.

Consider AGUAAGCAAUAUUACGUAUC, for which the “self-splicing fitness (ln)” value reads like this: (30 °C) -3.99 ± 0.33; (37 °C) -0.681 ± 0.23.

Consider UCAAAGCAAUAUUACGCGAG, for which the “self-splicing fitness (ln)” value is, setting by setting: (30 °C) -0.91 ± 0.12; (37 °C) -0.54 ± 0.14.

For UUGUAGCAAUAUUACGUGAG, the “self-splicing fitness (ln)” value (30 °C) was -0.904 ± 0.076 and the “self-splicing fitness (ln)” value (37 °C) is -0.739 ± 0.11.

With AACAAGCAAUAUUACGUGAC, the “self-splicing fitness (ln)” value (30 °C) is -2.94 ± 0.095 and the “self-splicing fitness (ln)” value (37 °C) was -2.34 ± 0.12.

As for GUAAAGCAAUAUUACGGGUA, the “self-splicing fitness (ln)” value is, setting by setting: (30 °C) -1.02 ± 0.078; (37 °C) -0.464 ± 0.085.

For the sequence CCGGAGCAAUAUUACGGGGG, the “self-splicing fitness (ln)” value (30 °C) is -3.5 ± 0.2 and the “self-splicing fitness (ln)” value (37 °C) was -1.83 ± 0.17.

As to GAUUAGCAAUAUUACGCGUU, the “self-splicing fitness (ln)” value (30 °C) was -2.52 ± 0.31 and the “self-splicing fitness (ln)” value (37 °C) is -1.8 ± 0.34.

Regarding CCAGAGCAAUAUUACGUCGA, the “self-splicing fitness (ln)” value is -3.92 ± 0.18 (30 °C) and -3.12 ± 0.17 (37 °C).

In the case of ACAGAGCAAUAUUACGAUCC, the “self-splicing fitness (ln)” value runs as follows: (30 °C) -3.76 ± 0.39; (37 °C) -1.5 ± 0.34.

For GUACAGCAAUAUUACGCAAA, the “self-splicing fitness (ln)” value was -0.875 ± 0.14 (30 °C) and -2.48 ± 0.28 (37 °C).

On to AUUGAGCAAUAUUACGGGGG, for which the “self-splicing fitness (ln)” value (30 °C) was -4.39 ± 0.46 and the “self-splicing fitness (ln)” value (37 °C) is -3.19 ± 0.31.

Regarding CAAGAGCAAUAUUACGGAUU, the “self-splicing fitness (ln)” value was -3.03 ± 0.25 (30 °C) and -3.21 ± 0.37 (37 °C).

Regarding GGCCAGCAAUAUUACGCAUC, the “self-splicing fitness (ln)” value is, setting by setting: (30 °C) -0.0388 ± 0.15; (37 °C) 0.0683 ± 0.16.

In the case of CAAGAGCAAUAUUACGUUCU, the “self-splicing fitness (ln)” value by setting is: (30 °C) -3.7 ± 0.27; (37 °C) -3.35 ± 0.23.

Turning to UUAGAGCAAUAUUACGGAAA, the “self-splicing fitness (ln)” value (30 °C) is -2.59 ± 0.19 and the “self-splicing fitness (ln)” value (37 °C) was -1.72 ± 0.23.

For AACAAGCAAUAUUACGAUUG, the “self-splicing fitness (ln)” value is -4.48 ± 0.21 (30 °C) and -1.54 ± 0.13 (37 °C).

Take CUACAGCAAUAUUACGCCCC: the “self-splicing fitness (ln)” value by setting is: (30 °C) -2.86 ± 0.41; (37 °C) -1.4 ± 0.35.

As for GAAAAGCAAUAUUACGGUCU, the “self-splicing fitness (ln)” value by setting is: (30 °C) -0.737 ± 0.057; (37 °C) -0.398 ± 0.072.

AAAUAGCAAUAUUACGUCGU: the “self-splicing fitness (ln)” value reads like this: (30 °C) -2.69 ± 0.17; (37 °C) -1.55 ± 0.16.

On to GUUAAGCAAUAUUACGAUGU, for which the “self-splicing fitness (ln)” value runs as follows: (30 °C) -1.16 ± 0.088; (37 °C) 0.226 ± 0.13.

Consider AAACAGCAAUAUUACGUCAG, for which the “self-splicing fitness (ln)” value reads like this: (30 °C) -3.36 ± 0.12; (37 °C) -2.41 ± 0.12.

On to GGAGAGCAAUAUUACGAAGU, for which the “self-splicing fitness (ln)” value was -3.48 ± 0.37 (30 °C) and -1.33 ± 0.2 (37 °C).

UCUAAGCAAUAUUACGGCUG: the “self-splicing fitness (ln)” value reads like this: (30 °C) -0.983 ± 0.21; (37 °C) -1.68 ± 0.24.

As for CUUGAGCAAUAUUACGAGGA, the “self-splicing fitness (ln)” value (30 °C) was -3.08 ± 0.38.

As to CACUAGCAAUAUUACGUGAA, the “self-splicing fitness (ln)” value was -3.83 ± 0.15 (30 °C) and -3.05 ± 0.18 (37 °C).

Turning to UAUAAGCAAUAUUACGAGAG, the “self-splicing fitness (ln)” value (30 °C) was -3.52 ± 0.38 and the “self-splicing fitness (ln)” value (37 °C) is -2.52 ± 0.27.

As to AUAGAGCAAUAUUACGAAGA, the “self-splicing fitness (ln)” value (30 °C) is -1.28 ± 0.38.

Take GCGAAGCAAUAUUACGCGGA: under “37 °C”, the “self-splicing fitness (ln)” value was -1.26 ± 0.36.

Consider ACCAAGCAAUAUUACGUACU, for which the “self-splicing fitness (ln)” value (30 °C) is -0.582 ± 0.049 and the “self-splicing fitness (ln)” value (37 °C) is -0.135 ± 0.071.

Consider AAGUAGCAAUAUUACGACAU, for which the “self-splicing fitness (ln)” value is, setting by setting: (30 °C) 0.0523 ± 0.012; (37 °C) -0.0429 ± 0.033.
